Consider one molecule from article PMC4240464 (The Febs Journal, 2013).

Common to all, as to assay: cell-based or functional assay
The target of one assay is T1, CCL16 (human, UniProt O15467 24-120).
T1 sequence: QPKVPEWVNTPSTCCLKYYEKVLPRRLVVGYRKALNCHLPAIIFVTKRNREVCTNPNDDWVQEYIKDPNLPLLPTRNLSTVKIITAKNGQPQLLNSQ

For a further assay, the target named is T2, CCL5 (wild type) (human, UniProt P13501 24-91).
T2 sequence: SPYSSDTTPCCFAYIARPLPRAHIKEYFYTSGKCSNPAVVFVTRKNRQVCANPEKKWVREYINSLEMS

A further assay addresses T3, CCL3L1 (human, UniProt P16619 24-93).
T3 sequence: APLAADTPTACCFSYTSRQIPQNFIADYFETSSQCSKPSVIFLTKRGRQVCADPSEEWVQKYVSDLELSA

The target in the next assay is T4, CCL17 (human, UniProt Q92583 24-94).
T4 sequence: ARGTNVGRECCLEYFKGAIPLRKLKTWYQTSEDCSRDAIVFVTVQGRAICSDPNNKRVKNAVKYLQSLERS

Another assay addresses T5, CCL26 (human, UniProt Q9Y258 24-94).
T5 sequence: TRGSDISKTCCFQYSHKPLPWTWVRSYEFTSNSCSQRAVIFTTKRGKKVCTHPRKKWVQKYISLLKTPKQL

For a further assay, the target named is CCL11 (human, UniProt P51671 24-97).
For the next assay, the target named is T6, CCL22 (human, UniProt O00626 25-93).
T6 sequence: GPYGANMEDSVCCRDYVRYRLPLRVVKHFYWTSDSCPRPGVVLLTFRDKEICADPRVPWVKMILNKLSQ

The target of another assay is T7, CCL3 (human, UniProt P10147 24-92).
T7 sequence: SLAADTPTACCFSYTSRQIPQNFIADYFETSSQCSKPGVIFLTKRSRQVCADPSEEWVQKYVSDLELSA

For the next assay, the target named is T8, CCL23 (human, UniProt P55773).
T8 sequence: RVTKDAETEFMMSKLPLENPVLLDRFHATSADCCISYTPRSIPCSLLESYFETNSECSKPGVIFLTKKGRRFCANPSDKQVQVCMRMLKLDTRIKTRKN

The target in a further assay is T9, CCL15 (human, UniProt Q16663).
T9 sequence: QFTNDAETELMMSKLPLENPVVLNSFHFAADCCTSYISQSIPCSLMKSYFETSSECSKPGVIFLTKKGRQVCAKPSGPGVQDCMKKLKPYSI

A further assay deals with T10, CCL8 (human, UniProt P80075 24-99).
T10 sequence: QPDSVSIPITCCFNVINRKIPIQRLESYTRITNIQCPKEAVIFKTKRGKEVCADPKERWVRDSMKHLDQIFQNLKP

Another assay deals with T11, CCL24 (human, UniProt O00175 27-119).
T11 sequence: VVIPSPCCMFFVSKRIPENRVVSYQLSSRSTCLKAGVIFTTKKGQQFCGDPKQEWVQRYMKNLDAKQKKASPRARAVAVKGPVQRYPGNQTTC

The target of a further assay is CCL7 (human, UniProt P80098 24-99).
CCL7, sequence (P80098 24-99): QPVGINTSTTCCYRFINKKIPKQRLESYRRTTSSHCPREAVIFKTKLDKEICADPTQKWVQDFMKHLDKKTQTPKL

CCL11, sequence (P51671 24-97): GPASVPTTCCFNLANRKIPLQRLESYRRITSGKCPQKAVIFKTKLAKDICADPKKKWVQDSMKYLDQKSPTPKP

B1: Evasin-4 (untagged recombinant) (natural protein)
chain: EVPQMTSSSAPDLEEEDDYTAYAPLTCYFTNSTLGLLAPPNCSVLCNSTTTWFNETSPNNASCLLTVDFLTQDAILQENQPYNCSVGHCDNGTCAGPPRHAQCW
modifications: appears to be highly glycosylated (six putative N-glycosylation sites)
Take B1: in the assay with CCL16, the “IC50, inhibition of chemotaxis of 300.19/CCR1 cells to CCL16 (EC80 250 nM)” value was found to be 304 nM. Moreover, in the assay with CCL5 (wild type), the “IC50, inhibition of chemotaxis of 300.19/CCR1 cells to CCL5 (EC80 1 nM)” value worked out at 2.2 nM; the “IC50, inhibition of chemotaxis of L1.2/CCR5 cells to CCL5 (EC80 1 nM)” value is 4.8 nM; the “IC50, inhibition of chemotaxis of monocytes to CCL5 (EC80 10 nM)” value is 1.5 nM. Moreover, the “IC50, inhibition of chemotaxis of L1.2/CCR5 cells to CCL3L1 (EC80 1 nM)” value in the assay with CCL3L1 was 3.5 nM. In addition, in the assay with CCL17, the “IC50, inhibition of chemotaxis of L1.2/CCR4 cells to CCL17 (EC80 1 nM)” value amounted to 69 nM. In the assay with CCL26, the “IC50, inhibition of chemotaxis of L1.2/CCR3 cells to CCL26 (EC80 10 nM)” value was 68 nM and the “IC50, inhibition of chemotaxis of eosinophils to CCL26 (EC80 50 nM)” value stood at 101 nM. Besides, in the assay with CCL11, the “IC50, inhibition of chemotaxis of L1.2/CCR3 cells to CCL11 (EC80 1 nM)” value is 14 nM and the “IC50, inhibition of chemotaxis of eosinophils to CCL11 (EC80 1 nM)” value was 4.9 nM. Moreover, the “IC50, inhibition of chemotaxis of L1.2/CCR4 cells to CCL22 (EC80 1 nM)” value in the assay with CCL22 was determined as 38 nM. Further, in the assay with CCL3, the “IC50, inhibition of chemotaxis of 300.19CCR1 cells to CCL3 (EC80 1 nM)” value came out at 2 nM and the “IC50, inhibition of chemotaxis of L1.2/CCR5 cells to CCL3 (EC80 40 nM)” value turned out to be 4.4 nM. Besides, the “IC50, inhibition of chemotaxis of 300.19/CCR1 cells to CCL23 (EC80 10 nM)” value with CCL23 is 2.2 nM. Moreover, the “IC50, inhibition of chemotaxis of L1.2/CCR3 cells to CCL15 (EC80 100 nM)” value with CCL15 was 88 nM. Also, in the assay with CCL8, the “IC50, inhibition of chemotaxis of L1.2/CCR3 cells to CCL8 (EC80 5 nM)” value was determined as 3.6 nM and the “IC50, inhibition of chemotaxis of eosinophils to CCL8 (EC80 10 nM)” value stood at 3.1 nM. The “IC50, inhibition of chemotaxis of L1.2/CCR3 cells to CCL24 (EC80 10 nM)” value with CCL24 worked out at 95 nM. Further, the “IC50, inhibition of chemotaxis of eosinophils to CCL7 (EC80 10 nM)” value in the assay with CCL7 was found to be 5 nM.
